Source: PMC8545111, “Molecular Basis of the Versatile Regulatory Mechanism of HtrA-Type Protease AlgW from Pseudomonas aeruginosa” (mBio, 2021)
Residue numbers refer to the chain shown, from its start. Several values for one entry are separate records, joined by “and”; a condition that tells them apart may be missing. Identical values can stand only once. Non-standard residues stand in square brackets, D forms with d. Residues, ends and D or L forms follow the SMILES beside them. *: point of attachment. pNA = O=[N+]([O-])c1ccc(N*)cc1; 2Abz = Nc1ccccc1C(=O)O

How the values were obtained:
[1] = tested on: CC(C)C[C@H](NC(=O)[C@@H](NC(=O)c1ccccc1N)C(C)C)C(=O)N[C@@H](C)C(=O)NCC(=O)Nc1ccc([N+](=O)[O-])cc1; experiment: Fluorogenic Abz-VLAG-pNA cleavage by peptide-activated AlgW and LA loop mutants (200 nM), 25 mM Tris pH 7.5, 150 mM NaCl, 37°C, Michaelis-Menten fit.; format: biochemical
Protocol: Based on the identified MucA and MucB cleavage sites for AlgW ([6], [13]), self-quenching fluorogenic tetrapeptides derived from 134-VLAG-137 of MucA (Abz-VLAG-pNA), 211-TVAW-214 of MucB (Abz-TVAW-pNA), and alanine tetrapeptide (Abz-AAAA-pNA) were synthesized and subjected to real-time measurement of AlgW proteolytic activity in the presence of excessive peptides (10 mM) (Fig. 2A). Compared with the negative-control group (using Abz-AAAA-pNA substrate), both Abz-VLAG-pNA and Abz-TVAW-pNA could be efficiently cleaved by AlgW. […] Considering that MucA is the major target of AlgW, substrate Abz-VLAG-pNA and decapeptide activator SVRDELRWVF were selected to establish a real-time AlgW assay to investigate the kinetic mechanism.
(§1) For the enzyme mechanism of AlgW (30–389) and mutants, two internally quenched fluorescent peptide substrates incorporating the peptidase cleavage site of MucA/MucB, Abz-VLAG-pNA and Abz-TVAW-pNA, were designed and synthesized (GL Biochem Shanghai Ltd., China). In the intact peptide, the fluorescence of the anthraniloyl group is quenched by the P-nitroaniline (Abz is a fluorogenic group, and pNA is a quencher of fluorescence). This quenched fluorescence is liberated upon cleavage of peptide by 200 nM AlgW and mutants (200/3 nM for trimer), resulting in increased fluorescence that can then be monitored fluorometrically. Prior to the assay, all enzyme preparations were incubated with 10 mM agonist peptides (WVF or SVRDELRWVF) for 30 min at room temperature. All assays were placed in a buffer containing 25 mM Tris (pH 7.5) and 150 mM NaCl at 37°C for 1 h, and the final assay volume was 100 μl. The fluorescent degradation products were monitored at 60-s intervals at fluorescence wavelength—λex = 310 nm, λem = 420 nm ([41]). All data points were representative of three independent determinations and were simulated with solid lines with the formula Y = Vmax · X^h/(Km ^h + X^h) or Y = Vmax · X^h/(Khalf^h + X^h) or the Michaelis-Menten formula (Y = Vmax · X/[Km + X]). Substrate versus velocity was used to determine Km and Vmax, and agonists versus velocity was used to determine the half-maximal activation concentration and maximum activation rate of agonists. The fitting and calculation of data were carried out using Prism 7 (GraphPad, CA, USA).

AlgW = experiment: Quenched fluorescent substrate cleavage by peptide/lipid-activated AlgW (substrate versus velocity); format: biochemical, Pseudomonas aeruginosa; details: three independent determinations; for Km / Vmax: substrate gradient 3.125-300 μM, Hill fit; for Km / Hill constants: Tris pH 7.5, 37°C; for Hill constants: substrate gradient; for Vmax: 25 mM Tris pH 7.5, 150 mM NaCl, 37°C, 1 h, fluorescence ex 310/em 420 nm
Protocol: FIG 2 Determination of enzyme apparent kinetic parameters of dual-signal-activated AlgW. (A) Activity assay of tripeptide or decapeptide-activated AlgW using the quenched fluorescent substrates Abz-VLAG-pNA, Abz-TVAW-pNA, and Abz-AAAA-pNA. All assays were placed in a buffer containing 25 mM Tris (pH 7.5) and 150 mM NaCl at 37°C for 1 h by adding 100 μM substrate, 200 nM AlgW, and 10 mM agonist peptides (tripeptide WVF or decapeptide SVRDELRWVF). (B) The apparent Michaelis-Menten parameters of AlgW cleavage quenched fluorescent substrates Abz-VLAG-pNA (100 μM) under the condition of peptide or lipid activation. (C) The activity assay of peptide or DDM activated AlgW using the saturated quenched fluorescent substrates Abz-VLAG-pNA. Under the gradient of peptide or DDM concentration,100 μM substrate and 200 nM AlgW were coincubated with or without 400 μM DDM or 10 mM agonist peptides in a buffer containing 25 mM Tris (pH 7.5) and 150 mM NaCl at 37°C for 1 h. The final assay volume of all experiments was 100 μl, and the appearance of fluorescent products was monitored at 60-s intervals at fluorescence wavelengths of λex = 310 nm and λem = 420 nm. All data points were representative of three independent determinations and were simulated with solid lines through the formula of Y = Vmax · X^h/(Km^h + X^h) or Y = Vmax · X^h/(Khalf^h + X^h). The Kcat for the AlgW trimer was calculated by Kcat = Vmax/(Etotal), (Etotal) = 200/3 nM trimers. Error bars represent the standard deviation.
as §1
All experiments were performed in independent biological triplicate, and the results of replicates were consistent. The fitting and calculation of data were carried out with Prism 7 (GraphPad, CA, USA). All the enzyme kinetic data points were representative of three independent determinations and were simulated with solid lines through the formula Y = Vmax · X^h/(Km^h + X^h) or Y = Vmax · X^h/(Khalf^h + X^h) or the Michaelis-Menten formula (Y = Vmax · X/[Km + X]). Substrate versus velocity was used to determine Km and Vmax, and agonists versus velocity was used to determine the half-maximal activation concentration and maximum activation rate of agonists; error bars represent the standard deviation.

AlgW and mutants = experiment: Apparent activation parameters of AlgW and mutants (peptide agonist gradient); format: biochemical, Pseudomonas aeruginosa; details: peptide activator (decapeptide) gradient, substrate Abz-VLAG-pNA, Michaelis-Menten fit, means of three independent determinations; for Maximal cleavage activity: Tris pH 7.5, 150 mM NaCl, 37°C; for EC50: read-out: Half-maximal activation concn
Source text: as §1

[2] = decapeptide SVRDELRWVF (10 mM) activated AlgW 200 nM
[3] = decapeptide SVRDELRWVF (10 mM, 30 min RT pre-incubation) activated AlgW 200 nM
[4] = tripeptide WVF (10 mM) activated AlgW 200 nM
[5] = tripeptide WVF (10 mM, 30 min RT pre-incubation) activated AlgW 200 nM

In the case of “AlgW-T72A (Pseudomonas aeruginosa PAO1; T72A)”, the Km [1] is reported as 86.69 ± 15.8 µM, the Vmax [1] is reported as 766 µM/min and the kcat/Km [1] is reported as 2.21e+06 ± 156000 M⁻¹ s⁻¹.

CC(C)[C@H](NC(=O)[C@@H](NC(=O)c1ccccc1N)[C@@H](C)O)C(=O)N[C@@H](C)C(=O)N[C@@H](Cc1c[nH]c2ccccc12)C(=O)Nc1ccc([N+](=O)[O-])cc1 [Abz-TVAW-pNA] (H-[2Abz]TVAW-pNA) was tested, and the Km (AlgW; [2]) was 26.9 ± 1.48 µM, the Hill constants (AlgW; [2]) was 1.26 and 1.26 ± 0.07 and the Vmax (AlgW; [3]) was 319.5 ± 6.42 µM/min. The Km (AlgW; [4]) was 25.1 ± 1.93 µM, the Hill constants (AlgW; [4]) was 1.25 and 1.25 ± 0.09 and the Vmax (AlgW; [5]) was 264.1 ± 7.31 µM/min.

In the case of CC(C)C[C@H](NC(=O)[C@@H](NC(=O)c1ccccc1N)C(C)C)C(=O)N[C@@H](C)C(=O)NCC(=O)Nc1ccc([N+](=O)[O-])cc1 [Abz-VLAG-pNA] (H-[2Abz]VLAG-pNA), the Km (AlgW; [2]) is reported as 50.1 ± 9.65 µM, the Hill constants (AlgW; [2]) is reported as ~1 and 0.95 ± 0.09 and the Vmax (AlgW; [3]) is reported as 187 ± 12.83 µM/min. The Km (AlgW; [4]) was 14.8 ± 2.16 µM, the Hill constants (AlgW; [4]) was 1.51 ± 0.29 and the Vmax (AlgW; [5]) was 81.23 ± 4.02 µM/min.

Work on “AlgW-ESS (103–105)A (Pseudomonas aeruginosa PAO1; E103A/S104A/S105A)” yielded a Km [1] of 123.1 ± 19.44 µM, a Vmax [1] of 873 µM/min and a kcat/Km [1] of 1.77e+06 ± 122000 M⁻¹ s⁻¹.

Work on “AlgW-K73A (Pseudomonas aeruginosa PAO1; K73A)” yielded a Km [1] of 247.9 ± 93.04 µM, a Vmax [1] of 188 µM/min and a kcat/Km [1] of 189000 ± 39700 M⁻¹ s⁻¹.

Molecule “AlgW-T71A (Pseudomonas aeruginosa PAO1; T71A)” has a Km [1] of 48.29 ± 6.19 µM, a Vmax [1] of 154 µM/min and a kcat/Km [1] of 799000 ± 33200 M⁻¹ s⁻¹.

Molecule “AlgW-TTK (71–73)A (Pseudomonas aeruginosa PAO1; K73A/T71A/T72A)” has a Km [1] of 125.1 ± 19.87 µM, a Vmax [1] of 1430 µM/min and a kcat/Km [1] of 2.86e+06 ± 199000 M⁻¹ s⁻¹.

B1: AlgW-R374A (protein)
chain: VGLPRQEVHVEQAPLLSRLQEGPVSYANAVSRAAPAVANLYTTKMVSKPSHPLFDDPMFRRFFGDNLPQQKRMESSLGSAVIMSAEGYLLTNNHVTAGADQIIVALRDGRETIAQLVGSDPETDLAVLKIDLKNLPAMTLGRSDGIRTGDVCLAIGNPFGVGQTVTMGIISATGRNQLGLNTYEDFIQTDAAINPGNSGGALVDAAGNLIGINTAIFSKSGGSQGIGFAIPTKLALEVMQSIIEHGQVIRGWLGVEVKALTPELAESLGLGETAGIVVAGVYRDGPAARGGLLPGDVILTIDKQEASDGRRSMNQVARTRPGQKISIVVLRNGQKVNLTAEVGLAPPPAPAPQQKQDGGE
modifications: left off: His6, C-terminal, state not stated
Work on B1 yielded a Maximal cleavage activity (AlgW and mutants) of 5.45 ± 0.68 µM/min.

B2: AlgW-L282A (protein)
chain: B1 chain with L253A, A345R
modifications: left off: His6, C-terminal, state not stated
With B2 the EC50 (AlgW and mutants) was 2760 ± 1190 nM and the Maximal cleavage activity (AlgW and mutants) was 13.24 ± 1.59 µM/min.

B3: AlgW-R279A (protein)
chain: B1 chain with R250A, A345R
modifications: left off: His6, C-terminal, state not stated
For B3, the EC50 (AlgW and mutants) was 2190 ± 990 nM and the Maximal cleavage activity (AlgW and mutants) was 26.87 ± 3.21 µM/min.

B4: AlgW-W281A (protein)
chain: B1 chain with W252A, A345R
modifications: left off: His6, C-terminal, state not stated
Work on B4 yielded an EC50 (AlgW and mutants) of 1510 ± 720 nM and a Maximal cleavage activity (AlgW and mutants) of 10.32 ± 1.51 µM/min.

B5: AlgW-V284A (protein)
chain: B1 chain with V255A, A345R
modifications: left off: His6, C-terminal, state not stated
B5 gave an EC50 (AlgW and mutants) of 3560 ± 730 nM and a Maximal cleavage activity (AlgW and mutants) of 63.13 ± 3.82 µM/min.

B6: AlgW-R347A (protein)
chain: B1 chain with R318A, A345R
modifications: left off: His6, C-terminal, state not stated
With B6 the EC50 (AlgW and mutants) was 1850 ± 990 nM and the Maximal cleavage activity (AlgW and mutants) was 63.5 ± 8.42 µM/min.

B7: AlgW-E151A (protein)
chain: B1 chain with E122A, A345R
modifications: left off: His6, C-terminal, state not stated
Work on B7 yielded an EC50 (AlgW and mutants) of 2990 ± 560 nM and a Maximal cleavage activity (AlgW and mutants) of 34.93 ± 1.87 µM/min.

B8: AlgW-E266A (protein)
chain: B1 chain with E237A, A345R
modifications: left off: His6, C-terminal, state not stated
Molecule B8 has an EC50 (AlgW and mutants) of 1080 ± 500 nM and a Maximal cleavage activity (AlgW and mutants) of 60.51 ± 5.07 µM/min.

B9: AlgW-Y212A (protein)
chain: B1 chain with Y183A, A345R
modifications: left off: His6, C-terminal, state not stated
Molecule B9 has an EC50 (AlgW and mutants) of 2120 ± 620 nM and a Maximal cleavage activity (AlgW and mutants) of 39.46 ± 6.17 µM/min.

B10: AlgW-D149A (protein)
chain: B1 chain with D120A, A345R
modifications: left off: His6, C-terminal, state not stated
In the case of B10, the Maximal cleavage activity (AlgW and mutants) is reported as 8.16 ± 0.85 µM/min.

B11: AlgW-E285A (protein)
chain: B1 chain with E256A, A345R
modifications: left off: His6, C-terminal, state not stated
With B11 the EC50 (AlgW and mutants) was 3840 ± 1090 nM and the Maximal cleavage activity (AlgW and mutants) was 57.5 ± 4.9 µM/min.

B12: AlgW-K287A (protein)
chain: B1 chain with K258A, A345R
modifications: left off: His6, C-terminal, state not stated
B12 showed an EC50 (AlgW and mutants) of 6530 ± 1380 nM and a Maximal cleavage activity (AlgW and mutants) of 49.42 ± 3.59 µM/min.
